For experiment [1], the target named is T1, Human CLEC12A-His (recombinant, K244 WT) (human, UniProt Q5QGZ9 65-265).
T1 construct: Made in house (Dragonfly Tx); also called hCLEC12A; hCLEC12A-His; not shown: His tag
T1 sequence: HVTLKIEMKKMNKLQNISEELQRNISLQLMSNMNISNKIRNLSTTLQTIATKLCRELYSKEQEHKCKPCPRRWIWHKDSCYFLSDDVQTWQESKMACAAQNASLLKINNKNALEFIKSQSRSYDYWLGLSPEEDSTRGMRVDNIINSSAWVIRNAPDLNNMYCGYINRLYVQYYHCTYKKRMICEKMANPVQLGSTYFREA
As to the kind of experiment: SPR, two-state fit (kd1); after forced oxidation. On the technique in general: SPR reads the build-up and loss of mass on a sensor chip optically.

The target in experiment [2] is T2, Human CLEC12A expressed on cells (Ba/F3-hCLEC12A, PL21, HL60) (human, UniProt Q5QGZ9 1-265).
T2 construct: Ba/F3 cells transduced with human CLEC12A; PL21 and HL60 AML lines express it endogenously; also called cell surface expressed CLEC12A
T2 sequence: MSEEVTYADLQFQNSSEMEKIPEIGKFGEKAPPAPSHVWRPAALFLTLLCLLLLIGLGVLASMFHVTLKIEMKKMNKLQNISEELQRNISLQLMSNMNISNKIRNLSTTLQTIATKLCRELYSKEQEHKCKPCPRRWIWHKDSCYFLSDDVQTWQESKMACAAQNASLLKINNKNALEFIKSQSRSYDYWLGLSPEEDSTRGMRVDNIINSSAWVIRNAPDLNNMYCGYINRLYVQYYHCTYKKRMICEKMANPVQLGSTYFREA
The experiment is described as follows: flow cytometry on HL-60 AML cells.

Experiment [3] has as its target T3, Cynomolgus CD16 (FcγRIII) (cynomolgus monkey, UniProt Q8SPW2 17-208, biotinylated).
T3 construct: Bought recombinant receptor; also called cFcγRIII; Cyno FcγRIII
As to the kind of experiment: SPR 25C, biotinylated cyno CD16 captured.

In experiment [4] the target is T1, Human CLEC12A-His (recombinant, K244 WT). The experiment is described as follows: SPR 37C, two-state fit (kd1), average.
Protocol: (§1) Briefly, human Fc specific antibodies were covalently immobilized at a density ˜8000-10000 resonance units (RU) on carboxy methyl dextran matrix of a CM5 biosensor chip via amine-coupling chemistry to create an anti-hFc IgG chip. […] Association was monitored for 300 seconds and dissociation was monitored for 600 seconds. Surfaces were regenerated between cycles with three pulses of 10 mM glycine-HCl, pH 1.7 injected for 20 seconds at 100 μl/min. HBS-EP+ (1×) with 0.1 mg/ml BSA was used as running buffer throughout the experiment. Experiments were performed at physiological temperature of 37° C. To obtain kinetic rate constants and overall binding affinity, double-referenced data were fit to a two-state kinetic model using Biacore 8K Insight Evaluation software (Cytiva).
For experiment [5] the target is unchanged. The experiment is described as follows: SPR 37C, two-state fit (ka1), average.
Protocol: as §1

Values joined by “and” are separate entries in the source; they are usually repeats but may differ in a detail not shown here. Equal values may be shown once.

The text below walks through data of patent publication US20220119534A1 (DRAGONFLY THERAPEUTICS, published 2022).

As a reminder, the koff is the rate constant with which the complex falls apart. The EC50 is the concentration at which the effect is half-maximal. Low readings indicate an effect from little substance, high ones a need for much substance. By Kd is commonly meant the equilibrium constant for the complex coming apart. Low readings indicate a tighter complex, high ones a looser complex. For orientation: kon means the rate constant with which the complex forms.

T3 sequence (Q8SPW2 17-208 limits assumed): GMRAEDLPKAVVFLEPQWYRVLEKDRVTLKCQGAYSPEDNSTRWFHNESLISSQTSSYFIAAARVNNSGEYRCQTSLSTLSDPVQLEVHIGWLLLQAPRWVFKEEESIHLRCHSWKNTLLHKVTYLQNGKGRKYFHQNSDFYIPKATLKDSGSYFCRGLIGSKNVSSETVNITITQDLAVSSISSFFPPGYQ

B1: AB0089 TriNKET (bispecific antibody, human IgG1, kappa)
chain: QLQLQESGPGLVKPSETLSLTCTVSGFSLTNYGLHWIRQPPGKCLEWIGVIWVGGATDYNPSLKSRVTISVDTSKNQFSLKLSSVQAADTAVYYCAKGDYGDTLDYWGQGTLVTVSSGGGGSGGGGSGGGGSGGGGSDIQMTQSPSSLSASVGDRVTITCHASQNINFWLSWYQQKPGKAPKLLIYEASNLHTGVPSRFSGSGSGTDFTLTISSLQPEDFATYYCQQSHSYPLTFGCGTKLEIKGSDKTHTCPPCPAPELLGGPSVFLFPPKPKDTLMISRTPEVTCVVVDVSHEDPEVKFNWYVDGVEVHNAKTKPREEQYNSTYRVVSVLTVLHQDWLNGKEYKCKVSNKALPAPIEKTISKAKGQPREPRVYTLPPCRDELTKNQVSLTCLVKGFYPSDIAVEWESNGQPENNYKTTPPVLVSDGSFTLYSKLTVDKSRWQQGNVFSCSVMHEALHNHYTQKSLSLSPG
heavy: EVQLVESGGGLVKPGGSLRLSCAASGFTFSSYSMNWVRQAPGKGLEWVSSISSSSSYIYYADSVKGRFTISRDNAKNSLYLQMNSLRAEDTAVYYCARGAPIGAAAGWFDPWGQGTLVTVSSASTKGPSVFPLAPSSKSTSGGTAALGCLVKDYFPEPVTVSWNSGALTSGVHTFPAVLQSSGLYSLSSVVTVPSSSLGTQTYICNVNHKPSNTKVDKKVEPKSCDKTHTCPPCPAPELLGGPSVFLFPPKPKDTLMISRTPEVTCVVVDVSHEDPEVKFNWYVDGVEVHNAKTKPREEQYNSTYRVVSVLTVLHQDWLNGKEYKCKVSNKALPAPIEKTISKAKGQPREPQVCTLPPSRDELTENQVSLTCLVKGFYPSDIAVEWESNGQPENNYKTTPPVLDSDGSFFLYSWLTVDKSRWQQGNVFSCSVMHEALHNHYTQKSLSLSPG
light: DIQMTQSPSSVSASVGDRVTITCRASQGISSWLAWYQQKPGKAPKLLIYAASSLQSGVPSRFSGSGSGTDFTLTISSLQPEDFATYYCQQGVSFPRTFGGGTKVEIKRTVAAPSVFIFPPSDEQLKSGTASVVCLLNNFYPREAKVQWKVDNALQSGNSQESVTEQDSKDSTYSLSSTLTLSKADYEKHKVYACEVTHQGLSSPVTKSFNRGEC
notes: F3' format heterodimer of three chains; human IgG1 Fc with EW-RVT and Y349C/S354C mutations; also called AB0089 Lot AB0089-002; CLEC12A TriNKET AB0089
In the case of B1, the koff in experiment [1] was found to be 0.0481 s⁻¹; in experiment [4] it was 0.0435 s⁻¹. Besides, the EC50 in experiment [2] worked out at 0.74 nM. Moreover, in experiment [3], the Kd was 351 nM and 347 nM and 348 nM. Further, in experiment [5], the kon came out at 1.04e+07 M⁻¹ s⁻¹.
